Experimental data published in publication PMC8809517, “Cofactor-independent RNA editing by a synthetic S-type PPR protein”.

T1: GFP-9S library array, motif 4 ND N98A;D124C (synthetic construct, N98A;D124C)
T1 chain: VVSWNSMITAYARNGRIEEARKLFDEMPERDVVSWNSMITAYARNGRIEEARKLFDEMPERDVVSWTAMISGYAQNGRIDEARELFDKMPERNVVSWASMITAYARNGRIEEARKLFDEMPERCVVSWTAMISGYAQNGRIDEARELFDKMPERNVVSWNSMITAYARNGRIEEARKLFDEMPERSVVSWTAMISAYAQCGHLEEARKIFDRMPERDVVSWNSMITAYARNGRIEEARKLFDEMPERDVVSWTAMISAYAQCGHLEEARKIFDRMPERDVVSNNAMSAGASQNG

T2: GFP-9S library array, motif 4 ND D124T (synthetic construct, D124T)
T2 chain: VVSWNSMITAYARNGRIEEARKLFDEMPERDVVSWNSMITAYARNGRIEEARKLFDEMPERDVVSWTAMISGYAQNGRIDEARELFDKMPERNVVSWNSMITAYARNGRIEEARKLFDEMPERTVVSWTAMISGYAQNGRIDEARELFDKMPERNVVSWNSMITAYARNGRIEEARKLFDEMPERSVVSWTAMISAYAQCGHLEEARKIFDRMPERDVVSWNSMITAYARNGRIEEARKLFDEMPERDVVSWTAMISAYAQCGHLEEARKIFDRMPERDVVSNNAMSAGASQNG

T3: GFP-9S library array, motif 4 ND N98E;D124S (synthetic construct, N98E;D124S)
T3 chain: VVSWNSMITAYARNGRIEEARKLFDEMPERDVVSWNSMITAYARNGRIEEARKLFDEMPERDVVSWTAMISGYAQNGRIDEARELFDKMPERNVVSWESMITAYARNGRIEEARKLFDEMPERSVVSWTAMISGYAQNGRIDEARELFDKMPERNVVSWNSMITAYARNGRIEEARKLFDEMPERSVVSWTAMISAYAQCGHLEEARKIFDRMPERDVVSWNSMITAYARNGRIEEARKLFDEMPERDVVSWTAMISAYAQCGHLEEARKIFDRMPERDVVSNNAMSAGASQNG

T4: GFP-9S library array, motif 4 ND N98M;D124C (synthetic construct, N98M;D124C)
T4 chain: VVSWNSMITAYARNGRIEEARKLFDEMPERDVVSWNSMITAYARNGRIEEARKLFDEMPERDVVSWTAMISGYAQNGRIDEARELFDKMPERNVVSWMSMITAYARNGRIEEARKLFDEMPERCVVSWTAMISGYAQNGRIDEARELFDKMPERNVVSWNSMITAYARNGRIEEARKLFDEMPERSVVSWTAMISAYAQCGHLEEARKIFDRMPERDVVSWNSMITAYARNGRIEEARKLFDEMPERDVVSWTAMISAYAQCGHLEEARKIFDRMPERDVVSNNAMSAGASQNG

T5: GFP-9S library array, motif 4 ND N98A;D124R (synthetic construct, N98A;D124R)
T5 chain: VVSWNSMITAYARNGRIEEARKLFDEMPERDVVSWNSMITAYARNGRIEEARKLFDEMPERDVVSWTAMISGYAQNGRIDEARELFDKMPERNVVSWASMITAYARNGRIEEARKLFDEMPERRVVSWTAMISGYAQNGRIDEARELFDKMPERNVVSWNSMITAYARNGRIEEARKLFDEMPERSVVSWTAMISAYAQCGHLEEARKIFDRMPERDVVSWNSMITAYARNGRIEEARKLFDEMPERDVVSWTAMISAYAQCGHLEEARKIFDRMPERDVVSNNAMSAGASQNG


Columns and labels:
Assay in all cases: high-throughput RNA pulldown from lysate on Ni-NTA beads; HRP: 50 mM Tris pH 8, 150 mM NaCl, 1 mM beta-mercaptoethanol, 50 ug/ml BSA, 3 ug/ml yeast RNA, 0.5% heparin; ITC and FP: Tris pH 8, 200 mM KCl, 5% glycerol; MST: 50 mM Tris pH 8, 200 mM NaCl, 1 mM DTT, BSA, heparin, 0.05% Tween 20
Conditions in all cases: tags: N-terminal His-eGFP
[1] = biological target: T1, GFP-9S library array, motif 4 ND …
[2] = biological target: T2, GFP-9S library array, motif 4 ND D124T
[3] = biological target: T3, GFP-9S library array, motif 4 ND …
[4] = biological target: T4, GFP-9S library array, motif 4 ND …
[5] = biological target: T5, GFP-9S library array, motif 4 ND …

Binder | Kd ([1]; label: 5' IRDye 800CW) | Kd ([2]; label: 5' IRDye 800CW) | Kd ([3]; label: 5' IRDye 800CW) | Kd ([4]; label: 5' IRDye 800CW) | Kd ([5]; label: 5' IRDye 800CW) | Kd ([1]; label: 5' Cy5) | Kd ([2]; label: 5' Cy5) | Kd ([3]; label: 5' Cy5) | Kd ([4]; label: 5' Cy5) | Kd ([5]; label: 5' Cy5)
AUUAUACGUGA (ssRNA) [IR-rpoA-U] | 92.2 nM | 24.6 nM | 512 nM | 193 nM | 160 nM | – | – | – | – | –
AUUACACGUGA (ssRNA) [Cy5-rpoA] | – | – | – | – | – | 112 nM | 8.35 nM | 422 nM | 99.7 nM | 178 nM
AUUAGACGUGA (ssRNA) [Cy5-rpoA-G] | – | – | – | – | – | 73.1 nM | 291 nM | 630 nM | 68.8 nM | 166 nM
AUUAAACGUGA (ssRNA) [IR-rpoA-A] | 163 nM | 215 nM | 938 nM | 85.3 nM | 254 nM | – | – | – | – | –
